Reference: patent US20150297458A1, “RAPID RECONSTITUTION PACKAGES FOR MIXING AND DELIVERY OF DRUGS” (Massachusetts Institute of Technology, priority 2012, published 2015)

Tests used:
[1] = cited from earlier work
[2] = ELISA stability characterization of tPA after storage in vial, solution or RRP; assay type: physicochemical
Protocol: RRPs were initially kept at 20° C., and subsequently subjected to a fixed wall temperature of 65° C. for 3 hours. Samples were kept in 6 different storage conditions for 24 hours prior to assay preparation: (1) Standard Cathflo Activase lyophilized in glass vial at 20° C.; (2) Cathflo Activase reconstituted in Millipore filtered water and kept in glass vial at 20° C.; (3) lyophilized Cathflo Activase loaded into RRPs and kept at 20° C.; (4) Cathflo Activase lyophilized in glass vial at 65° C.; (5) Cathflo Activase reconstituted in Millipore filtered water and stored in glass vial at 65° C., and (6) Cathflo Activase loaded into RRP and kept at 65° C. After 24 hours each sample in lyophilized form, including those stored in the RRP, was reconstituted in 2 mL Millipore water, and apportioned for subsequent use in ELISA, UV-Vis and HPLC assays.
Stability experiments were performed to characterize and compare the RRP with standard vials at various storage conditions. ELISA assays were used to test for stability of samples (Human tPA Platinum ELISA Kit, eBioscience, Inc.) that underwent two temperature conditions, T=20, 65° C. HPLC assays were not sufficient in assaying stability for tPA as the low pH buffer required denatured tPA regardless of conformation or partial denaturation already induced by the storage condition.
The samples to be tested were injected into each ELISA well and left to incubate. After a wash step, a second antibody, horseradish peroxidase (HRP)-conjugated anti-tPA, was injected into each sample well. The HRP-conjugated anti-tPA bound onto the opposing side of the tPA molecule already bound onto the plate-fixed antibody. After a second wash step, a color inducing substrate (TMB substrate) was then injected into the wells, which bound onto the HRP to induce a measureable gradient representing the amount of tPA bound. In order to prevent oversaturation of the antibodies, the samples were diluted to 10 ng/mL to fall within the assay sensitivity range of 2 pg/mL-10 ng/mL. Optical signal intensity from assay plates were measured with spectrophotometer at wavelength 450 nm (PowerWave HT Microplate Spectrophotomer, BioTek Instruments, Inc.). Each sample was normalized against a calibration curve derived from a 5-parameter logistic fit of tPA standards ran concurrently with the samples.

Tissue Plasminogen Activator [tPA]
stability time in solution (liquid form) [1]: up to 8 hours | stability by ELISA ([2]; all samples (solid, liquid, and RRP) at 20° C., over 24 hours): stability preservation | average activity retained (ELISA) ([2]; lyophilized in standard glass vial at 65° C., 24 hours): 81.6% | total initial drug stability retained, average (ELISA) ([2]; lyophilized, loaded into RRP, kept at 65° C., 24 hours): 86.3% | activity expressed, in average of the standard activity average (ELISA) ([2]; stored in reconstituted form within glass vials at 65° C., 24 hours): 39.3%
